This note sets out measurements from patent US20220073604A1 (ARGENX BVBA, published 2022).

As a reminder, the koff is the first-order rate constant of dissociation. As usually defined, the Kd is the equilibrium constant for the complex coming apart. A word on the kon: it is a measure of how fast the partners come together.

Experiment [1] addresses IL-6 surfaces of Table 8 (Bact, euk, cyno), average. Kind of experiment: SPR (Biacore), off-rate screen. (SPR reads the build-up and loss of mass on a sensor chip optically.)
Experiment [2] deals with T1, human IL-6 (human, UniProt P05231 30-212).
T1 construct: Used where the text says only IL-6 or human IL-6 (crystals: rh IL-6 from Immunotools; cell assays) and for values averaged over the bacterial and eukaryotic IL-6 channels; also called interleukin-6; rh IL-6
Nature of the experiment: SPR; periplasmic fraction; average of the IL-6 channels. More on the design: unit not given here.

Experiment [3] deals with T2, bacterially produced human IL-6 (human, UniProt P05231 30-212).
T2 construct: also called bactIL-6; prokaryotic IL-6
Nature of the experiment: SPR; periplasmic fraction.
Description: (§1) From the washing phase the off-rate (kd) was determined, while from the injection phase the on-rate (ka) was calculated using the concentration and off-rate as parameters.

For experiment [4], the target named is T3, eukaryotically produced human IL-6 (human, UniProt P05231 30-212).
T3 construct: also called eukIL-6; Euk IL-6
Kind of experiment: SPR; periplasmic fraction.
Description: as §1

The target in experiment [5] is T2, bacterially produced human IL-6. Nature of the experiment: SPR; periplasmic fraction; ratio bact to euk IL-6.
Description: as §1
The target in experiment [6] is T1, human IL-6. Nature of the experiment: cell-based or functional assay.
Experiment [7] concerns the target T4, bacterially produced human IL-6 (human, UniProt P05231 30-212).
T4 construct: Immobilised on the Biacore chip; also called BACT IL-6 (2-1); bactIL-6
Kind of experiment: SPR (Biacore), purified Fab.

In experiment [8] the target is T5, eukaryotically produced human IL-6 (human, UniProt P05231 30-212).
T5 construct: Immobilised on the Biacore chip; also called Euk IL-6; EUK IL-6 (3-1)
Nature of the experiment: SPR (Biacore), purified Fab.

The target of experiment [9] is IL-6 (bact-hIL-6, euk-hIL-6 and bact-cy IL-6; 'average binding' of Table 21). Kind of experiment: average binding level in the off-rate screen (unit not given; n = 1).
For experiment [10], the target named is T6, bacterially produced cynomolgus monkey IL-6 (cynomolgus monkey, UniProt P79341 28-212, limits assumed).
T6 construct: also called bact-cy IL-6; HIS-cyIL-6
Nature of the experiment: off-rate of Fab 111A7 variant on bact-cy IL-6 (binding kinetics, SPR presumed; n = 1).

Changes are numbered by the printed parent chain. Where “and” joins values, the source holds several entries; their conditions need not be identical. Identical values can stand only once.

B1: 61H7 (Fab, V domains shown)
VH: EVQLVESGGGLVQPGGSLRLSCAASGFTFSSYRMYWVRQPPGKGLEWVSAISAGGGSTYYGDSVKGRFTISRDNAKNTVYLQMNSLKPEDTAVYYCANRAGWGMGDYWGQGTQVTVSS
VL: QTVVTQEPSLSVSPGGTVTLTCGLSSGSVTASNYPGWFQQTPGQAPRALIYSTNDRHSGVPSRFSGSISGNKAALTITGAQPEDEADYYCALDIGDITEFGGGTHLTVLG
Turning to B1, the Average binding (RU) in [1] is 635 RU.

B2: Fab 24G3 (Fab, V domains shown)
VH: QLQVVESGGGLVQPGSSLRLSCGASGFTFSSHRMYWVRQPPGKGLEWVSAISSSGVSTYYADSVKGRFTISRDNAKNTVYLQMNSLKPEDTALYYCKRRTWYGGEYDYWGQGTQVTVSS
VL: B1 VL
notes: Fab; also called 28g12(24G3)
On to B2, for which the average binding in the experiment with human IL-6 [2] worked out at 46. The values for the koff in [3] and in experiment [4] were 0.000112 s⁻¹ and 7.52e-05 s⁻¹, respectively. In experiment [5], the ratio bact/euk came to 0.96.

B3: 111B1 (antibody, V domains shown)
VH: B1 VH with V5L, R33A, A50R, A75S, V79L, K87R, P88A, Q113L
VL: QTVVTQEPSFSVSPGGTVTLTCGLSSGSVTASNYPGWFQQTPGQAPRALIYSTNDRHSGVPDRFSGSILGNKAALTITGAQAEDEADYYCALDIGDITEFGGGTQLTVL
As for B3, the “IC50, growth of IL-6-dependent 7TD1 cells with 75 pg/ml human IL-6” value (shortened to “IC50, growth”) in the experiment with human IL-6 [6] is less than 0.001 nM.

B4: 61H7 antibody (antibody, V domains shown)
VH: B1 VH
VL: B1 VL
B4: in the experiment with human IL-6 [6], the “IC50, growth” value is less than 0.001 nM.

B5: 61B7 (Fab, V domains shown)
VH: B1 VH with V2L, R33A, Y35S, P40A, L45P, A50R, A53S, T58A, G61A, V79L
VL: B1 VL
notes: Fab
On to B5, for which the Average binding (RU) in experiment [1] is 597 RU. In [7], the Kd is 0.16 nM, the koff was determined as 5.7e-05 s⁻¹ and the kon stood at 350000 M⁻¹ s⁻¹. In experiment [8], this molecule gave a Kd of 0.2 nM, a koff of 6.6e-05 s⁻¹ and a kon of 330000 M⁻¹ s⁻¹.

B6: 104C1 (antibody, V domains shown)
VH: B1 VH with V5L, R33A, P40A, A50R
VL: B1 VL with L10F, F38Y, S62D, P82A, E83D, A86S, H105K
Regarding B6, the “IC50, growth” value in the experiment with human IL-6 [6] was less than 0.001 nM.

B7: 24D10 (Fab, V domains shown)
VH: QLQVVESGGGLVQPGGSLRLSCAASGFTFSSYAMSWVRQAPGKGPEWVSRISSGGGSTSYADSVKGRFTISRDNAKNTLYLQMNSLKPEDTAVYYCANRAGWGMGDYWGQGTQVTVSS
VL: B1 VL
notes: Purified Fab
In experiment [7], B7 registered a Kd of 0.5 nM, a koff of 0.0001 s⁻¹ and a kon of 210000 M⁻¹ s⁻¹. Further, in experiment [8], the Kd is 0.41 nM, the koff was determined as 0.0001 s⁻¹ and the kon turned out to be 250000 M⁻¹ s⁻¹.

B8: 61H7 (Fab, V domains shown)
VH: B1 VH
VL: B1 VL
notes: Fab; also called Fab 61H7
In experiment [7], B8 displayed a Kd of 0.017 nM, a koff of 2e-06 s⁻¹ and a kon of 120000 M⁻¹ s⁻¹. For the same molecule, in [8], the Kd was found to be 0.45 nM, the koff stood at 5.5e-05 s⁻¹ and the kon stood at 120000 M⁻¹ s⁻¹.

B9: 55H1 (Fab, V domains shown)
VH: EVQLVESGGGLVQPGGSLRLSCAASGFTFSSYAMSWVRQAPGKGLEWVSRISSGGISTYYADSVKGRFTISRDNAKNTLYLQMNSLKPEDTAVYYCVRYAWGVQWAFDFWGQGTQVTVSS
VL: AQSVVTQPPSVSGSPGKTVTISCAGTSSDVGYGNYVSWYQQLPGMAPKLLIYDVSKRASGIADRFSGSKSGNTASLTISGLQSEDEADYVCASYRRGGTAVFGGGTHLTVLG
For B9, in experiment [1], the Average binding (RU) is 773 RU and 770 RU and 873 RU.

B10: Fab 111A7 with the CDR3 methionine changed to C (Fab, V domains shown)
VH: EVQLLESGGGLVQPGGSLRLSCAASGFTFSSYAMSWVRQAPGKGPEWVSRISAGGGSTYYGDSVKGRFTISRDNSKNTLYLQMNSLRAEDTAVYYCANRAGWGCGDYWGQGTLVTVSS
VL: B3 VL with F38Y, L69S
Turning to B10, the average binding in experiment [9] stood at 42. Further, the koff in [10] was 9.46e-05 s⁻¹.

B11: Fab 111A7 with the CDR3 methionine changed to N (Fab, V domains shown)
VH: B10 VH with C104N
VL: B3 VL with F38Y, L69S
B11 came in with an average binding in experiment [9] of 137. For the same molecule, the koff in experiment [10] came out at 0.000207 s⁻¹.

B12: Fab 111A7 with the CDR3 methionine changed to F (Fab, V domains shown)
VH: B10 VH with C104F
VL: B3 VL with F38Y, L69S
For the molecule B12, the average binding in [9] turned out to be 144. The same molecule yielded an off-rate constant (koff) in experiment [10] of 0.000203 s⁻¹.

B13: Fab 111A7 with the CDR3 methionine changed to K (Fab, V domains shown)
VH: B10 VH with C104K
VL: B3 VL with F38Y, L69S
Regarding B13, the average binding in experiment [9] turned out to be 81. This molecule had a koff in experiment [10] of 0.00417 s⁻¹.

B14: Fab 111A7 with the CDR3 methionine changed to W (Fab, V domains shown)
VH: B10 VH with C104W
VL: B3 VL with F38Y, L69S
With B14, the average binding in experiment [9] turned out to be 26. Moreover, the koff in experiment [10] was found to be 0.000177 s⁻¹.

B15: Fab 111A7 with the CDR3 methionine changed to R (Fab, V domains shown)
VH: B10 VH with C104R
VL: B3 VL with F38Y, L69S
The molecule B15 came in with an average binding in [9] of 64. This molecule also yielded a koff in experiment [10] of 0.000121 s⁻¹.

B16: 133A9 (antibody, V domains shown)
VH: EVQLQESGPGLVKPSQTLSLTCTVSGGSITTRYYAWSWIRQPPGKGLEWIGVIDYEGDTYYSPSLKSRVTISVDTSKNQFSLKLSSVTAEDTAVYYCARDPDVVTGFHYDYWGQGTMVTVSS
VL: QSALTQPPLVSGSPGQTVTISCAGANNDIGTYAYVSWYQQPPGTAPKLMIYKVTTRASGIPDRFSGSISGNTASLTISGLQSEDEADYYCASYRNFNNAVFGTGTKLTVL
With B16, the “IC50, growth” value with human IL-6 [6] is less than 0.001 nM.

B17: 133E5 (antibody, V domains shown)
VH: B16 VH with E1Q, T31S, E56D, V73W, A89P, M117Q
VL: B16 VL with L9S, P41L, I68K, S82A, T103R
In the case of B17, the “IC50, growth” value with human IL-6 [6] was less than 0.001 nM.

B18: 133H2 (antibody, V domains shown)
VH: B16 VH with E56D, V69T, V73W, A89P, E90A, M117T
VL: B16 VL with I68K, S82A, T103S
On to B18, for which the “IC50, growth” value with human IL-6 [6] was less than 0.001 nM.

B19: 68F2 antibody (antibody, V domains shown)
VH: B16 VH with I50M, E56D, V69T, T70S, V73W, K83Q, A89P, M117Q
VL: QSALTQPPLVSGTPGQTVTISCAGANNDIGTYAYVSWYQQLPGTAPKLLIYKVTTRASGIPSRFSGSKSGNTASLTISGLQSEDEADYYCASYRNFNNAVFGRGTHLTVLG
As to B19, the “IC50, growth” value with human IL-6 [6] is less than 0.001 nM.

B20: Fab 28B6 (Fab, V domains shown)
VH: QVQLVESGGGLVQPGGSLRLSCAASGFTFSNYYMTWVRQAPGKGLEWVSSIYSFSGDTAYADSVKGRFTISRDNAKNTLYLQMNSLKSEDTAVYYCTRNLGGVVVTTNGYDYWGQGTQVTVSS
VL: DIQLTQSPSSLSASLGDRVTITCQASQSISTELSWYQQKPGQTPKLLIYGASRLQTGVPARFSGSGSGTSFTLTISGLEAEDLATYYCLQDYSWPYSFGSGTRL
notes: Fab; also called 28f3(28B6)
Regarding B20, in the experiment with human IL-6 [2], the average binding turned out to be 43. Moreover, the koff in [3] was found to be 7.71e-05 s⁻¹; in experiment [4] it was 3.5e-05 s⁻¹. Further, the ratio bact/euk in [5] is 1.
